Test results from patent US20220363757A1 (SYMPHOGEN A S, published 2022).
Numbering of substitutions follows the chain as printed. Each block holds one binder with its values, some of them ahead of it.

Assays:
[1] = target: T1, human LAG-3 domain 1-2 Fc fusion, point mutation #70 G130A (human, UniProt P18627 23-266); experiment: SPR, Fab over captured mutant LAG-3-Fc;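 note: fc fusion variants captured on anti-human IgG Fc sensor, Fab injected with association then dissociation phases, KD obtained from Langmuir one-to-one fit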
T1 construct: not shown: human IgG1 Fc, AA P101-K330
T1 sequence: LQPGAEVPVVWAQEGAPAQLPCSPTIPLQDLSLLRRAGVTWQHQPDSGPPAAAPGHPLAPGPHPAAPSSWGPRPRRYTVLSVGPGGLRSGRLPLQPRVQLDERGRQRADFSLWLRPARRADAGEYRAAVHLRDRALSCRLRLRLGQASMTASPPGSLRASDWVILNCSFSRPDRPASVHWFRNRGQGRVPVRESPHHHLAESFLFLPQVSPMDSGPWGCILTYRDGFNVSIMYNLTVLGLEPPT

[2] = target: T2, human LAG-3 domain 1-2 Fc fusion, point mutation #43 P96A (human, UniProt P18627 23-266); experiment: SPR, Fab over captured mutant LAG-3-Fc;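 note: fc fusion variants captured on anti-human IgG Fc sensor, Fab injected with association then dissociation phases, KD obtained from Langmuir one-to-one fit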
T2 construct: not shown: human IgG1 Fc, AA P101-K330
T2 sequence: T1 sequence with P74A, A108G

[3] = target: T3, human LAG-3 domain 1-2 Fc fusion, point mutation #60 P118A (human, UniProt P18627 23-266); experiment: SPR, Fab over captured mutant LAG-3-Fc;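 note: fc fusion variants captured on anti-human IgG Fc sensor, Fab injected with association then dissociation phases, KD obtained from Langmuir one-to-one fit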
T3 construct: not shown: human IgG1 Fc, AA P101-K330
T3 sequence: T1 sequence with P96A, A108G

[4] = target: T4, human LAG-3 domain 1-2 Fc fusion, point mutation #68 Q128A (human, UniProt P18627 23-266); experiment: SPR, Fab over captured mutant LAG-3-Fc;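 note: fc fusion variants captured on anti-human IgG Fc sensor, Fab injected with association then dissociation phases, KD obtained from Langmuir one-to-one fit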
T4 construct: not shown: human IgG1 Fc, AA P101-K330
T4 sequence: T1 sequence with Q106A, A108G

[5] = target: T5, human LAG-3 domain 1-2 Fc fusion, point mutation #27 L80A (human, UniProt P18627 23-266); experiment: SPR, Fab over captured mutant LAG-3-Fc
T5 construct: not shown: human IgG1 Fc, AA P101-K330
T5 sequence: T1 sequence with L58A, A108G

[6] = target: T6, human LAG-3 domain 1-2 Fc fusion, point mutation #16 H65A (human, UniProt P18627 23-266); experiment: SPR, Fab over captured mutant LAG-3-Fc
T6 construct: not shown: human IgG1 Fc, AA P101-K330
T6 sequence: T1 sequence with H43A, A108G

[7] = target: T7, human LAG-3 ECD human IgG1 Fc fusion (human, UniProt P18627 23-450); experiment: SPR, Fab over captured LAG-3 ECD-Fc
T7 construct: not shown: human IgG1 Fc, AA P101-K330
T7 sequence: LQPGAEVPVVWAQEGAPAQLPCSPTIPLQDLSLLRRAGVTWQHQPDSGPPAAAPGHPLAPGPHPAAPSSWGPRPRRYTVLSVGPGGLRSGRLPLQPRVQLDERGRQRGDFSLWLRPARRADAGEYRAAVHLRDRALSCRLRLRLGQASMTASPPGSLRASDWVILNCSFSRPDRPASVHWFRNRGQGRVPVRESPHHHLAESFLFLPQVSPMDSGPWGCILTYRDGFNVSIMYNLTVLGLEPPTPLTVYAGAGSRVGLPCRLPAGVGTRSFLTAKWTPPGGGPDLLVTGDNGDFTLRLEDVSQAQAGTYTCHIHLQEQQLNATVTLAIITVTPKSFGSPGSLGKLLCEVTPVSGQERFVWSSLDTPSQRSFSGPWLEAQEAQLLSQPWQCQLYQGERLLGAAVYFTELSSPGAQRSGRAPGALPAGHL

[8] = target: T8, mouse LAG-3 ECD (mouse, UniProt Q61790 24-442); experiment: SPR, Fab over captured LAG-3 ECD
T8 sequence: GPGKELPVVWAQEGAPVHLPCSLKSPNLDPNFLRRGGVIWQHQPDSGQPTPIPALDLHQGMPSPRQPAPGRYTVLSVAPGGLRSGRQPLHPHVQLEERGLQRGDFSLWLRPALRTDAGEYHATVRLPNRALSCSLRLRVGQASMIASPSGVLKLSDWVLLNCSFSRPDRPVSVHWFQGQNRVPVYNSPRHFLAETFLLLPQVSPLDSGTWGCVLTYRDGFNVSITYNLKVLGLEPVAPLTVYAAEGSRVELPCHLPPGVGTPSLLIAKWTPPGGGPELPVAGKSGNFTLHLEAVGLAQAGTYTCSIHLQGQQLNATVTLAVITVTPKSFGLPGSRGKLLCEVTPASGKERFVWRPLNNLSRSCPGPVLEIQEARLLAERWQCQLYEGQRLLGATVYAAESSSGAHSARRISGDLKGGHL
Method: Antigens were purified using standard procedures and captured onto an G-a-hu-IgG Fc SensEye® (Ssens BV, The Netherlands) for 15 minutes using a Continuous Flow Microspotter (CFM, Wasatch Microfluidics, Salt Lake City, US). After spotting, the SensEye® was positioned in the IBIS MX96 biosensor and remaining capture sites blocked. […] Fab association was performed for 15 minutes and antigen dissociation was performed for 15 minutes. The recorded binding responses were fitted to a simple Langmuir 1:1 binding model with Scrubber 2 software for calculation of the on-rate (kon or ka), off-rate (koff or kd) and affinity (KL) constants.

- binding result [1]: no binding (tested: 300 nM)
- binding result [2]: no binding (tested: 300 nM)
- KD mutant/KD wild type [3]: 0.9 fold
- KD mutant/KD wild type [4]: 0.9 fold
- KD mutant/KD wild type [5]: 0.6 fold
- binding result [6]: no binding (tested: 300 nM)
- Kd [7]: 27 nM
- koff [7]: 0.003 s⁻¹
- kon [7]: 110000 M⁻¹ s⁻¹
- binding result [8]: no binding (tested: 1000 nM)
B1: Fab fragment of antibody 15572 (Fab, V domains shown, not shown: a dimerising Fc or GST)
VH: QLQLQESGPGLVKPSETLSLTCTVSGDSISSSSYYWGWIRQPPGKGLEWIGSIFYSGNTYYNPSLKSRVTISVDTSKNQFSLKLSSVTAADTAVYYCAREDDFLTDYYGAFDIWGQGTMVTVSS
VL: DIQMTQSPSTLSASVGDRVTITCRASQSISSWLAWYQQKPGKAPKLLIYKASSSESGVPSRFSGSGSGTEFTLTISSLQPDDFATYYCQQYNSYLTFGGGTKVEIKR
notes: monomeric Fab made by GingisKHAN digestion of the IgG1

- KD mutant/KD wild type [1]: 4.4 fold
- KD mutant/KD wild type [2]: 1.4 fold
- KD mutant/KD wild type [3]: 0.7 fold
- KD mutant/KD wild type [4]: 0.7 fold
- KD mutant/KD wild type [5]: 0.6 fold
- KD mutant/KD wild type [6]: 3.8 fold
- Kd [7]: 5.8 nM
- koff [7]: 0.00065 s⁻¹
- kon [7]: 110000 M⁻¹ s⁻¹
- binding result [8]: no binding (tested: 1000 nM)
B2: Fab fragment of antibody 15532 (Fab, V domains shown, not shown: a dimerising Fc or GST)
VH: QVQLQQWGAGLLRPSETLSLTCAVYGESFSGYYWNWIRQPPGKGLEWIGEINHSGSTNYNPSLKSRVTISVDTSKTQFSLKLSSVTAADTAVYYCARGWDLLDWNDYWNEYWGQGTLVTVSS
VL: EIVLTQSPATLSLSPGERATLSCRASQSVSSYLAWYQQKPGQAPRLLIYDASNRATGIPARFSGSGSGTDFTLTISSLEPEDFAVYYCQQRSNWPLTFGGGTKVEIKR
notes: as for B1

- binding result [1]: no binding (tested: 300 nM)
- binding result [2]: no binding (tested: 300 nM)
- KD mutant/KD wild type [3]: 1 fold
- KD mutant/KD wild type [4]: 0.8 fold
- KD mutant/KD wild type [5]: 0.5 fold
- binding result [6]: no binding (tested: 300 nM)
- Kd [7]: 30 nM
- koff [7]: 0.002 s⁻¹
- kon [7]: 66000 M⁻¹ s⁻¹
- binding result [8]: no binding (tested: 1000 nM)
B3: Fab fragment of antibody 15431 (Fab, V domains shown, not shown: a dimerising Fc or GST)
VH: QVQLQQSGPGLVKPSQTLSLTCAISGDSVSSNSAAWNWIRQSPSRGLEWLGRTYYRSKWYNDYAVSVKSRITINPDTSKNQFSLQLNSVTPEDTAVYYCARDDDWNDFDYWGQGTLVTVSS
VL: B2 VL
notes: as for B1

- KD mutant/KD wild type [1]: 0.6 fold
- KD mutant/KD wild type [2]: 0.6 fold
- KD mutant/KD wild type [3]: 1.2 fold
- KD mutant/KD wild type [4]: 1 fold
- KD mutant/KD wild type [5]: 0.8 fold
- KD mutant/KD wild type [6]: 0.5 fold
- Kd [7]: 4.3 nM
- koff [7]: 0.00048 s⁻¹
- kon [7]: 110000 M⁻¹ s⁻¹
- Kd [8]: 33 nM
- koff [8]: 0.0023 s⁻¹
- kon [8]: 72000 M⁻¹ s⁻¹
B4: Fab fragment of antibody 15011 (Fab, V domains shown, not shown: a dimerising Fc or GST)
VH: EVQLLESGGGLVQPGGSLRLSCAASGFDFRSYAMMWVRQAPGKGLEWVGGINGEVGGSNTYYAPAVKGRATISRDNSKNTLYLQMNSLRAEDTAVYYCVKGAGACGICNDDIDAWGQGTLVTVSS
VL: SYELTQDPAVSVALGQTVRITCSGAGSYAGSYYYGWHQQKPGQAPVTVIYDNDKRPSNIPDRFSGSSSGNTASLTITGAQAEDEADYYCGSTNDNDDGGLFGSGTKVTVLG
notes: as for B1
